Laboratory results from US10704056B2, “Constitutively active ABA receptor mutants” (The Regents of the University of California, priority 2011, dated 2020).

Columns and labels:
ABI1 = target: T1, ABI1 (Arabidopsis thaliana, UniProt P49597); assay: In vitro PP2C phosphatase (pNPP) receptor activation assay with ABI1; format: biochemical; conditions: 600 nM PP2C, 0-4800 nM receptor, no ABA
T1 construct: Full length ABI1 and ABI2 were cloned into a modified pSUMO vector; made in house; host or cells: E. coli BL21 (DE3) pLysS
T1 sequence (P49597 1-434): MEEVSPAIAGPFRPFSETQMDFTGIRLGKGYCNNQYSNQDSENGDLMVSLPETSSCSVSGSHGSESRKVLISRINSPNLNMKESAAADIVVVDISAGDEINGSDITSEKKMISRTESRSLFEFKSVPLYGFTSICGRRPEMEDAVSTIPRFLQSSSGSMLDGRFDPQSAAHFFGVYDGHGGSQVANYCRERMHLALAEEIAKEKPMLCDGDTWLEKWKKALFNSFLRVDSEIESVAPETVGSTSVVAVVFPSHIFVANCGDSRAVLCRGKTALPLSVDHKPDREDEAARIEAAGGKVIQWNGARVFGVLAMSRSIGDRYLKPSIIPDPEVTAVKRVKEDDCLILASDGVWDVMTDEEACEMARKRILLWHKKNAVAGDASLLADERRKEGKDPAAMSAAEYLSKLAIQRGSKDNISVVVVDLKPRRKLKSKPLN
Experimental: (§1) Full length ABI1 and ABI2 were cloned into a modified pSUMO vector (LifeSensors Inc, USA) vector yielding 6×His-SUMO fusion proteins; GST-HAB1 was expressed and purified as previously described (Park et al., 2009). Mutant receptors were cloned into pET28 yielding 6×His-fusion proteins. […]. The cultures were pre-incubated 2 hours at 30° C. and, for PP2C expression, media was supplemented with 4 mM MnCl2 one hour after inoculation. After pre-incubation, IPTG was added (1 mM) and cells were induced at 15° C. for 16 hours, after which they were collected by centrifugation, resuspended in 5 ml Buffer A (50 mM NaH2PO4, 300 mM NaCl) +10 mM imidazole, pH 8.0 and stored at −80° C. For purification, cells were thawed, sonicated on ice (60 seconds) and a cleared lysate was then applied a 1 ml-bed volume column of Ni-NTA (Qiagen, USA), washed with 20 column volumes of Buffer A+30 mM imidazole and bound protein eluted with 1 ml of Buffer A+250 mM imidazole. For receptors, the elutate was dialyzed against TBS and for PP2Cs, fusion proteins were desalted by passage over a Sephadex G50 column.
(§2) The purified receptors and phosphatases were then used in receptor assays where receptor activation is indicated by inhibition of phosphatase activity, as inferred from initial reaction velocities for PP2C-mediated hydrolysis of the synthetic phosphatase substrate pNPP in reactions containing 600 nM PP2C and either 0, 600, 1200, 2400 or 4800 nM receptor. The receptor assay buffer consisted of 33 mM Tris-OAc, pH 7.9, 66 mM KOAc, 0.1% BSA, 25 mM Mn(OAc)2, 0.1%13-ME and 50 mM pNPP. Immediately after mixing proteins and substrates, reactions were monitored for hydrolysis of pNPP at A405 at ˜2 minutes intervals using a Wallac plate reader. Reaction progressions were plotted, initial velocities calculated and converted to specific activities by comparison to a standard curve for 4-nitrophenol made in the same buffer system. PP2C activity values shown in figures are expressed as %-control phosphatase activity levels, as measured under identical reaction conditions in the absence of receptor protein. The average specific activity level of GST-HAB1, 6×His-SUMO-ABI1 and 6×His-SUMO-ABI2 utilized in our experiments was 4500 (GST-PP2C) or 2500 (SUMO-PP2C) μmol/min/mg, when assayed using the phosphatase substrate pNPP in the absence of PYR1 or other receptors.

ABI2 = target: T2, ABI2 (Arabidopsis thaliana, UniProt O04719); assay: In vitro PP2C phosphatase (pNPP) receptor activation assay with ABI2; format: biochemical; conditions: 600 nM PP2C, 0-4800 nM receptor, no ABA
T2 construct: Full length ABI1 and ABI2 were cloned into a modified pSUMO vector; made in house; host or cells: E. coli BL21 (DE3) pLysS
T2 sequence (O04719 1-423): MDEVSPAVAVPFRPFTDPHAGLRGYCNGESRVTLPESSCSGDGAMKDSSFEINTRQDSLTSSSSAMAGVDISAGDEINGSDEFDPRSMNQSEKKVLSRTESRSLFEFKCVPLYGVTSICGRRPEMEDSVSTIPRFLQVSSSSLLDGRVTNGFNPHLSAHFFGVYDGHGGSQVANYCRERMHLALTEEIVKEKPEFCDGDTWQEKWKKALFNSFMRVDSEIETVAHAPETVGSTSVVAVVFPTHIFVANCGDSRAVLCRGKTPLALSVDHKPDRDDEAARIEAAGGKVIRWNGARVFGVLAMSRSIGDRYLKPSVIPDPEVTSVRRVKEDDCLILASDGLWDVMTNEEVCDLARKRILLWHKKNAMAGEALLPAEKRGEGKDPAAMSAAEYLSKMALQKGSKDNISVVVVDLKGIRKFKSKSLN
Experimental: as §1, §2

B1: PYL2^CA3: PYL2 mutant (H65P, V87F, F165V); expressed in plants as 35S-driven GFP fusion (protein)
chain: HHHHHHMSSSPAVKGLTDEEQKTLEPVIKTYHQFEPDPTTCTSLITQRIHAPASVVWPLIRRFDNPERYKPFVKRCRLISGDGDVGSVREVTFISGLPASTSTERLEFVDDDHRVLSFRVVGGEHRLKNYKSVTSVNEFLNQDSGKVYTVVLESYTVDIPEGNTEEDTKMVVDTVVKLNLQKLGVAATSAPMHDDE
constitutive receptor activity on ABI1 in the absence of ABA (ABI1): active towards multiple PP2Cs | constitutive receptor activity on ABI2 in the absence of ABA (ABI2): active towards multiple PP2Cs
